Earlier results as cited in PMC2904412.

Biological target: thrombomodulin (Homo sapiens) (UniProt P07204)

Kd: < 1 nM
Substance: thrombin (from UniProt P00734)
